According to US20250145722A1 (TRUEBINDING, published 2025):

B1: 6H6.2D6 (antibody, human IgG4 S228P, kappa, V domains shown)
VH: QIQLVQSGPELKKPGETVKISCKASGYTFTTYGMSWVKQAPGKGLKWMAWINTYSGVPTYADDFKGRFAFSLETSASTAYLQINNLTNEDTATYFCARGPYAMDYWGQGTSVTVSS
VL: DIQMTQTTSSLSASLGDRVTISCSASQGISNYLNWYQQKPDGTVKLLIYYTSSLHSGVPSRFSGSGSGTDYSLTISNLEPEDIATYYCQQYSELPYTFGSGTKLEIKR
B2: recombinant human TNF sRI (R&D Systems, 372-RI/CF) (receptor, UniProt P19438 30-211, looked up)
chain: LVPHLGDREKRDSVCPQGKYIHPQNNSICCTKCHKGTYLYNDCPGPGQDTDCRECESGSFTASENHLRHCLSCSKCRKEMGQVEISSCTVDRDTVCGCRKNQYRHYWSENLFQCFNCSLCLNGTVHLSCQEKQNTVCTCHAGFFLRENECVSCSNCKKSLECTKLCLPQIENVKGTEDSGTT
notes: Detected with anti-human IgG

What was measured:
[1] = molecular target: T1, human Galectin-3 (Gal3), full-length recombinant (human, UniProt P17931 2-250); experiment: blocking ELISA, Gal3 coated, VEGFR3-Fc, antibody 20 µg/ml
T1 construct: treated here as one molecule; also called hGAL3; hGal3
Description: (§1) After incubating the plate at 4° C. overnight, the plate was washed three times with PBST. The plate was then blocked for an hour with 2% BSA in PBST at room temperature with gentle rocking. […] The respective plates were incubated for an hour at room temperature with gentle rocking. Thereafter, the plate was washed three times with PBST. Peroxidase AffiniPure F(ab′)₂ Fragment Goat Anti-Human IgG (H+L) polyclonal antibody was then added to the wells at 1:4000 dilution in 2% BSA in PBST. The plate was incubated at room temperature for an hour with gentle rocking and then washed three times with PBST. TMB substrate was then added to each well. The reaction was stopped with 1M HCl and read using a plate reader (Molecular Devices, SpectraMax M4) at absorbance of 450 nm.

[2] = molecular target: T1, human Galectin-3 (Gal3), full-length …; experiment: blocking ELISA, Gal3 coated, PDGFR alpha-Fc, antibody 20 µg/ml
Description: as §1

[3] = molecular target: T1, human Galectin-3 (Gal3), full-length …; experiment: blocking ELISA, Gal3 coated, EGFR-Fc, antibody 20 µg/ml
Description: as §1

[4] = molecular target: T1, human Galectin-3 (Gal3), full-length …; experiment: blocking ELISA, Gal3 coated, PDGFR beta-Fc, antibody 20 µg/ml
Description: as §1

[5] = molecular target: T1, human Galectin-3 (Gal3), full-length …; experiment: Gator biosensor kinetics, antibody loaded on probe, rhGal3-His in solution, 1:1 fit
Excerpt: The binding affinities were characterized by fitting the kinetic sensorgrams to a monovalent binding model (1:1 binding).

[6] = molecular target: T1, human Galectin-3 (Gal3), full-length …; experiment: Gator biosensor kinetics (legend: SPR), 6H6 mIgG2a loaded on probes, rhGalectin-3 as analyte, 1:1 fit
[7] = molecular target: T1, human Galectin-3 (Gal3), full-length …; experiment: ELISA: Gal3 coated at 2 or 3 µg/ml, protein at 2 or 3 µg/ml, anti-human IgG-HRP, A450
Description: Thereafter, the 2% BSA in PBST was discarded and 2 or 3 μg/ml of various recombinant human tumor cell surface proteins in 2% BSA in PBST were added to the wells.
The plate was incubated for an hour at room temperature with gentle rocking. Thereafter, the plate was washed three times with PBST. […] The plate was incubated at room temperature for an hour with gentle rocking and then washed three times with PBST.

T1 sequence (P17931 2-250 limits assumed): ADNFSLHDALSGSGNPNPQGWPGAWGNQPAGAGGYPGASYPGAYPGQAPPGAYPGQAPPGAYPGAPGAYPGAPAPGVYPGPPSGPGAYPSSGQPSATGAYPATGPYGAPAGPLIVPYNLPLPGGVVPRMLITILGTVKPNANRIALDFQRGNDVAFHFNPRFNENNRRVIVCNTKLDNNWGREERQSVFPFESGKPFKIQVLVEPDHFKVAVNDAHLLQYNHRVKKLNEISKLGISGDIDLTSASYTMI

Binder	% blocking of Gal3-VEGFR3 binding [1] [%]	% blocking of Gal3-PDGFR alpha binding [2] [%]	% blocking of Gal3-EGFR binding [3] [%]	% blocking of Gal3-PDGFR beta binding [4] [%]	Kd [5] [nM]	koff [6] [s⁻¹]	kon [6] [M⁻¹ s⁻¹]	binding result [7]
B1	> 70	> 70	> 70	> 70	3.39	0.000299	88000	–
B2	–	–	–	–	–	–	–	binds
